According to article PMC4738335, “MatP regulates the coordinated action of topoisomerase IV and MukBEF in chromosome segregation” (Nature Communications, 2016):

Assays:
Settings in all cases: both partners purified
[1] = molecular target: T1, MukB Hinge, purified (36 kDa) (E. coli, UniProt P22523 566-863); assay: SEC; Superose 6 10/300 GL; 50 mM HEPES pH 7.5, 100 mM NaCl, 1 mM DTT, 1 mM EDTA, 5 mM MgCl2; MatPΔC18 (73 μM) and/or Hinge (15 μM); fractions on SDS-PAGE
T1 construct: MukB, E. coli, residues 566-863 (Hinge construct); printed size 36 kDa; details of purification are in Supplementary Methods; source: E. coli C3013I, pET vector, purified
T1 sequence (looked up): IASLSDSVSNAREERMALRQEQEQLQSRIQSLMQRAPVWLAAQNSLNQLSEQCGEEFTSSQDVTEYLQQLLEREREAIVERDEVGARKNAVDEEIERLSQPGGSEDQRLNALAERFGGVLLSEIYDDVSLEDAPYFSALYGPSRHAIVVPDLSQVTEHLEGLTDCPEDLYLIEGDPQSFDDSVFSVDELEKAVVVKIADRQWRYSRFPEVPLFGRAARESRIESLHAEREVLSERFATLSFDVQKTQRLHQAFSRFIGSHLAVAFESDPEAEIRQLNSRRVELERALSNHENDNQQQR

MukB–Flag = molecular target: T2, MukB–Flag (E. coli, UniProt P22523 1-1486); assay: co-IP; MukB–Flag or Hinge–Flag from cell lysate bound to anti-Flag M2 Affinity gel and washed; purified MatPΔC18-6×His added in 50 mM HEPES pH 7.5, 100 mM NaCl, 45 min, 4 °C; SDS-PAGE
T2 construct: MukB, E. coli; printed MW with Flag 171.7 kDa; The printed mass fits the whole protein; also called FLAG-tagged MukB
T2 sequence (looked up): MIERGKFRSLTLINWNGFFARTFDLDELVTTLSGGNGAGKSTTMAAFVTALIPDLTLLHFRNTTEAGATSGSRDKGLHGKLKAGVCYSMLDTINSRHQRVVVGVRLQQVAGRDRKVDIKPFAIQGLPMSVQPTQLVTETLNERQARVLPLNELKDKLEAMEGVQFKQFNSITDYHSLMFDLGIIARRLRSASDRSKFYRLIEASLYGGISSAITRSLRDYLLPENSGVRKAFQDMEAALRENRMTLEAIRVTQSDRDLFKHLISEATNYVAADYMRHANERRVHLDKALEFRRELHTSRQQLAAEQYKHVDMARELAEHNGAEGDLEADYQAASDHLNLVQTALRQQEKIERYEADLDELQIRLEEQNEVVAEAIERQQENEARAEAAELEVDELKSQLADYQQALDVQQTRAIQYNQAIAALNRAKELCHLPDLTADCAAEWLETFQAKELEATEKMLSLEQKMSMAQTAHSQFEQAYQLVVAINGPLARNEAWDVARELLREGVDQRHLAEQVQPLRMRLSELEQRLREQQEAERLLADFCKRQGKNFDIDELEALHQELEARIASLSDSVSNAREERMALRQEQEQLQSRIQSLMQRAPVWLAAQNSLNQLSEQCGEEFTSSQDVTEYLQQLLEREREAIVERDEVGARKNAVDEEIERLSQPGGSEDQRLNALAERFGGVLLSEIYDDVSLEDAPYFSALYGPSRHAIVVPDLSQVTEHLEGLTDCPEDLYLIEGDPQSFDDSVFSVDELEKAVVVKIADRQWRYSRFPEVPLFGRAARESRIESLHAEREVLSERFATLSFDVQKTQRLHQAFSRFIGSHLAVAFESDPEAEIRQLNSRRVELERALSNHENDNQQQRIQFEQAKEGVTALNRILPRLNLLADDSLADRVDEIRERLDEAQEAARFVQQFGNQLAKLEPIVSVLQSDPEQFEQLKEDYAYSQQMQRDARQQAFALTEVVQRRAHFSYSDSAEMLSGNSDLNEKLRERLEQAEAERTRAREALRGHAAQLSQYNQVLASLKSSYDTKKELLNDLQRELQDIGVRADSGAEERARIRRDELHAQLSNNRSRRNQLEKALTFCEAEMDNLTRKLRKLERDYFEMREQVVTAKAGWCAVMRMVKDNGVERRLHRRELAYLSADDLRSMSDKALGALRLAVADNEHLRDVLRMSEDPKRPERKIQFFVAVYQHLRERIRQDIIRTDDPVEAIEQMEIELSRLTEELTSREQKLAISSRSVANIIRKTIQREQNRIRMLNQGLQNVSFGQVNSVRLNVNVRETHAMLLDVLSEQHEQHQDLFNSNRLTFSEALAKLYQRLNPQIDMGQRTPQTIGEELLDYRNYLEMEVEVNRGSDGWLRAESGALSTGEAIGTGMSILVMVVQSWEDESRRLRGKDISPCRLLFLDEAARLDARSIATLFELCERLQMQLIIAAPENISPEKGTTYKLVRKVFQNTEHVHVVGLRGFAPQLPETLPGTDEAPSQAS

Hinge–Flag = molecular target: T3, Hinge–Flag (E. coli, UniProt P22523 566-863); assay: as above
T3 construct: MukB, E. coli, residues 566-863 (Hinge construct); printed MW with Flag 35.2 kDa; Hinge proteins gave 2 bands on SDS-PAGE, maybe because of proteolytic cleavage; also called FLAG-tagged Hinge
T3 sequence (looked up): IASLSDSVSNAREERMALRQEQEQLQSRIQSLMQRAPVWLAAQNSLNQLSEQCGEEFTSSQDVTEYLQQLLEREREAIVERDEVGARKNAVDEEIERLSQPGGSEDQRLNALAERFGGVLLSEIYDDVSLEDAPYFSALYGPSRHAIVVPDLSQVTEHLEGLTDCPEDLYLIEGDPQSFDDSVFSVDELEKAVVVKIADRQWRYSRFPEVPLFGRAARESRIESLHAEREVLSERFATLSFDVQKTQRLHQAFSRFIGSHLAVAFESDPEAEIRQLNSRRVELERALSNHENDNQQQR

MukB-6×His, purified = molecular target: T4, MukB-6×His, purified (E. coli, UniProt P22523 1-1486); assay: co-IP; MatPΔC18–Flag from cell lysate bound to anti-Flag M2 Affinity gel and washed; purified MukB, MukE, MukF added as indicated in 50 mM HEPES pH 7.5, 100 mM NaCl, 45 min, 4 °C; SDS-PAGE
T4 construct: MukB, E. coli; printed MW with 6×His 172.6 kDa; The printed mass fits the whole protein; source: E. coli C3013I, pET vector, purified
T4 sequence (looked up): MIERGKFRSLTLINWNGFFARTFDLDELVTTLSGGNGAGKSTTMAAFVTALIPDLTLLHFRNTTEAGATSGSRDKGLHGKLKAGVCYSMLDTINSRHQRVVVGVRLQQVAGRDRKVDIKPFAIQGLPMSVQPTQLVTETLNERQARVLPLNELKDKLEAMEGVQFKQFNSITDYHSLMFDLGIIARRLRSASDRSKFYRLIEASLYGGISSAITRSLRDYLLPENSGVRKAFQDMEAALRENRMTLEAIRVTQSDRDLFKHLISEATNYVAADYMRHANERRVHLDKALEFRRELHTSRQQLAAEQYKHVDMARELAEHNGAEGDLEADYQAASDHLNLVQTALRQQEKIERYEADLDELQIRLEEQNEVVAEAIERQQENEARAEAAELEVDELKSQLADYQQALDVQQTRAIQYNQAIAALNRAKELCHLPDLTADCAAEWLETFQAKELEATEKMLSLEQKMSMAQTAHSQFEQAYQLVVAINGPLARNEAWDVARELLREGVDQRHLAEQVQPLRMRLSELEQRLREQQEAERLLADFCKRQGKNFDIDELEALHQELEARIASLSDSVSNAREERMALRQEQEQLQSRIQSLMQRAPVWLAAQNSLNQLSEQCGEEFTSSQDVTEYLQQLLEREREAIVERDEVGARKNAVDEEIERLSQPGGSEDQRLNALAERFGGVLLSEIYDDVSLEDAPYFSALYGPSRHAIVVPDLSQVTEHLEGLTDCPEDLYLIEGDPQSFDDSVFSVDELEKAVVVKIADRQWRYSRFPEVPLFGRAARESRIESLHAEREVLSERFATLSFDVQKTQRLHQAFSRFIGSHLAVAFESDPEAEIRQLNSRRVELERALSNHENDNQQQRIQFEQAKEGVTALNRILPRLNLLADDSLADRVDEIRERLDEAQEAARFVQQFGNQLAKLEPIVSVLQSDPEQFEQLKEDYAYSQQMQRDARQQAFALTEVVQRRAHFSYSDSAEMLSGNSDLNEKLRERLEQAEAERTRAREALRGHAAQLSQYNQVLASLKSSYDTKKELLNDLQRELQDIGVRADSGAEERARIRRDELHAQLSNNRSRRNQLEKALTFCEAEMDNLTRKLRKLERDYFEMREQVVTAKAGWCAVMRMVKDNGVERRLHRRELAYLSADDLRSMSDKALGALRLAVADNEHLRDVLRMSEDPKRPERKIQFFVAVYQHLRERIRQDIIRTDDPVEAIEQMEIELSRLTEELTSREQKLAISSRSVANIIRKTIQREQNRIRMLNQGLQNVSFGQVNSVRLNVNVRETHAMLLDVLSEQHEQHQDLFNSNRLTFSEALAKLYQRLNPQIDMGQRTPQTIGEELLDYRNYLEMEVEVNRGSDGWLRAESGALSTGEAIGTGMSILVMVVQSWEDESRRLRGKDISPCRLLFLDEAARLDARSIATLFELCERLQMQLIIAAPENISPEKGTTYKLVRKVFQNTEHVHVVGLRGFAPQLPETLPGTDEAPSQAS

B1: MatPΔC18-6×His, purified (domain or fragment, E. coli, UniProt P0A8N0 1-132, looked up)
chain: MKYQQLENLESGWKWKYLVKKHREGELITRYIEASAAQEAVDVLLSLENEPVLVNGWIDKHMNPELVNRMKQTIRARRKRHFNAEHQHTRKKSIDLEFIVWQRLAGLAQRRGKTLSETIVQLIEDAENKEKY
notes: MatP, E. coli, truncated by its 18 C-terminal amino-acid residues; printed MW with 6×His 18.3 kDa; source: E. coli C3013I, pET vector, purified
binding result [1]: binds | binding result (MukB–Flag): binds | binding result (Hinge–Flag): binds

B2: MatPΔC18–Flag (domain or fragment, E. coli, UniProt P0A8N0 1-132, looked up)
chain: MKYQQLENLESGWKWKYLVKKHREGELITRYIEASAAQEAVDVLLSLENEPVLVNGWIDKHMNPELVNRMKQTIRARRKRHFNAEHQHTRKKSIDLEFIVWQRLAGLAQRRGKTLSETIVQLIEDAENKEKY
notes: MatP, E. coli, truncated by its 18 C-terminal amino-acid residues; printed MW with Flag 16.9 kDa; also called FLAG-tagged MatPΔC18
binding result (MukB-6×His, purified): binds
